US20040265295A1 (WISCONSIN ALUMNI RESEARCH FOUNDATION, published 2004)
One block for each binder: values may come before it. Square brackets hold non-standard residues; d marks the D form. Ends that are not written are not given here. pY = N[C@@H](Cc1ccc(OP(=O)(O)O)cc1)C(=O)O; pT = C[C@@H](OP(=O)(O)O)[C@H](N)C(=O)O

What was measured:
[1] = target: T1, GST-talin head (human talin1 head region 1-435) (human, UniProt Q9Y490 1-435); assay: peptide competition of integrin tail (competitor) binding to GST-talin
T1 construct: The construct is human talin1 head region (1-435) cloned from HEK293T cells; also called wild-type GST-talin; not shown: GST (and further tags) of the pET42 vector
T1 sequence (Q9Y490 1-435): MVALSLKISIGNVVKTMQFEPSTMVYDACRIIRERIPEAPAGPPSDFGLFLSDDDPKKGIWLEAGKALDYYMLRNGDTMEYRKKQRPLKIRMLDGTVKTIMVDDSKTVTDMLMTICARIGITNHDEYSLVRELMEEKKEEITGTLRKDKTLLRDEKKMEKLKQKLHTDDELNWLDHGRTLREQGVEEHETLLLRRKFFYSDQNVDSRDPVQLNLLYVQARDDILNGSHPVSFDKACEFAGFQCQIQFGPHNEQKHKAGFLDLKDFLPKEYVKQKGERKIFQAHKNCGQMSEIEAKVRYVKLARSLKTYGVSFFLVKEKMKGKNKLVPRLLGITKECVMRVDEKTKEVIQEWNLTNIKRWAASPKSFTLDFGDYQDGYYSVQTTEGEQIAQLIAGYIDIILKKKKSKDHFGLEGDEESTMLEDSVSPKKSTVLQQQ
Description: (§1) Purified GST-talin head proteins were incubated with PIPKIγ661 tails or β1-integrin tail, together with Glutathione SEPHAROSE™ 4 Fast Flow (Amersham Biosciences, Piscataway, N.J.), in Buffer B (PBS, 0.2% NP-40, 2 mM DTT) at 4° C. for 4 hours. The beads were washed three times with Buffer B and analyzed by western blot. For competition assays, GST-talin head proteins were incubated with peptides or competing proteins for 2 hours, then the binding proteins were added and the mixtures were incubated for another 4 hours.

[2] = target: T1, GST-talin head (human talin1 head …); assay: GST pull-down competition in vitro; competitor His-β1-integrin tail
Description: (§2) Talin interactions were assessed by GST pull-down using recombinant GST-talin head, His-PIPKIγ635 C-terminus, His-PIPKIγ661 wild-type or Tyr to Phe mutant C-terminus, and His-β1-integrin tail. […] Peptides containing the PIPKIγ661/talin binding sequence (Di Paolo, et al. (2002) supra) were designed to include phosphorylated Tyr⁶⁴⁴₁, phosphorylated Tyr⁶⁴⁹₁ and dual phosphorylated Tyr⁶⁴⁴ and Tyr⁶⁴⁹. The phosphorylated peptides displaced PIPKIγ661 from talin more efficiently than the non-phosphorylated peptide in HEK293T cell lysates.
as §1

talin = target: T2, talin (Homo sapiens (Human), UniProt Q9Y490 1-2541); assay: peptide displacement of PIPKIγ661 (competitor) from talin in HEK293T cell lysates
T2 construct: Endogenous talin of HEK293T (and other) cells, detected with anti-talin antibody; also called talin (endogenous, in cell lysates)
T2 sequence (Q9Y490 other isoform, or with tags, fused parts or gaps limits assumed): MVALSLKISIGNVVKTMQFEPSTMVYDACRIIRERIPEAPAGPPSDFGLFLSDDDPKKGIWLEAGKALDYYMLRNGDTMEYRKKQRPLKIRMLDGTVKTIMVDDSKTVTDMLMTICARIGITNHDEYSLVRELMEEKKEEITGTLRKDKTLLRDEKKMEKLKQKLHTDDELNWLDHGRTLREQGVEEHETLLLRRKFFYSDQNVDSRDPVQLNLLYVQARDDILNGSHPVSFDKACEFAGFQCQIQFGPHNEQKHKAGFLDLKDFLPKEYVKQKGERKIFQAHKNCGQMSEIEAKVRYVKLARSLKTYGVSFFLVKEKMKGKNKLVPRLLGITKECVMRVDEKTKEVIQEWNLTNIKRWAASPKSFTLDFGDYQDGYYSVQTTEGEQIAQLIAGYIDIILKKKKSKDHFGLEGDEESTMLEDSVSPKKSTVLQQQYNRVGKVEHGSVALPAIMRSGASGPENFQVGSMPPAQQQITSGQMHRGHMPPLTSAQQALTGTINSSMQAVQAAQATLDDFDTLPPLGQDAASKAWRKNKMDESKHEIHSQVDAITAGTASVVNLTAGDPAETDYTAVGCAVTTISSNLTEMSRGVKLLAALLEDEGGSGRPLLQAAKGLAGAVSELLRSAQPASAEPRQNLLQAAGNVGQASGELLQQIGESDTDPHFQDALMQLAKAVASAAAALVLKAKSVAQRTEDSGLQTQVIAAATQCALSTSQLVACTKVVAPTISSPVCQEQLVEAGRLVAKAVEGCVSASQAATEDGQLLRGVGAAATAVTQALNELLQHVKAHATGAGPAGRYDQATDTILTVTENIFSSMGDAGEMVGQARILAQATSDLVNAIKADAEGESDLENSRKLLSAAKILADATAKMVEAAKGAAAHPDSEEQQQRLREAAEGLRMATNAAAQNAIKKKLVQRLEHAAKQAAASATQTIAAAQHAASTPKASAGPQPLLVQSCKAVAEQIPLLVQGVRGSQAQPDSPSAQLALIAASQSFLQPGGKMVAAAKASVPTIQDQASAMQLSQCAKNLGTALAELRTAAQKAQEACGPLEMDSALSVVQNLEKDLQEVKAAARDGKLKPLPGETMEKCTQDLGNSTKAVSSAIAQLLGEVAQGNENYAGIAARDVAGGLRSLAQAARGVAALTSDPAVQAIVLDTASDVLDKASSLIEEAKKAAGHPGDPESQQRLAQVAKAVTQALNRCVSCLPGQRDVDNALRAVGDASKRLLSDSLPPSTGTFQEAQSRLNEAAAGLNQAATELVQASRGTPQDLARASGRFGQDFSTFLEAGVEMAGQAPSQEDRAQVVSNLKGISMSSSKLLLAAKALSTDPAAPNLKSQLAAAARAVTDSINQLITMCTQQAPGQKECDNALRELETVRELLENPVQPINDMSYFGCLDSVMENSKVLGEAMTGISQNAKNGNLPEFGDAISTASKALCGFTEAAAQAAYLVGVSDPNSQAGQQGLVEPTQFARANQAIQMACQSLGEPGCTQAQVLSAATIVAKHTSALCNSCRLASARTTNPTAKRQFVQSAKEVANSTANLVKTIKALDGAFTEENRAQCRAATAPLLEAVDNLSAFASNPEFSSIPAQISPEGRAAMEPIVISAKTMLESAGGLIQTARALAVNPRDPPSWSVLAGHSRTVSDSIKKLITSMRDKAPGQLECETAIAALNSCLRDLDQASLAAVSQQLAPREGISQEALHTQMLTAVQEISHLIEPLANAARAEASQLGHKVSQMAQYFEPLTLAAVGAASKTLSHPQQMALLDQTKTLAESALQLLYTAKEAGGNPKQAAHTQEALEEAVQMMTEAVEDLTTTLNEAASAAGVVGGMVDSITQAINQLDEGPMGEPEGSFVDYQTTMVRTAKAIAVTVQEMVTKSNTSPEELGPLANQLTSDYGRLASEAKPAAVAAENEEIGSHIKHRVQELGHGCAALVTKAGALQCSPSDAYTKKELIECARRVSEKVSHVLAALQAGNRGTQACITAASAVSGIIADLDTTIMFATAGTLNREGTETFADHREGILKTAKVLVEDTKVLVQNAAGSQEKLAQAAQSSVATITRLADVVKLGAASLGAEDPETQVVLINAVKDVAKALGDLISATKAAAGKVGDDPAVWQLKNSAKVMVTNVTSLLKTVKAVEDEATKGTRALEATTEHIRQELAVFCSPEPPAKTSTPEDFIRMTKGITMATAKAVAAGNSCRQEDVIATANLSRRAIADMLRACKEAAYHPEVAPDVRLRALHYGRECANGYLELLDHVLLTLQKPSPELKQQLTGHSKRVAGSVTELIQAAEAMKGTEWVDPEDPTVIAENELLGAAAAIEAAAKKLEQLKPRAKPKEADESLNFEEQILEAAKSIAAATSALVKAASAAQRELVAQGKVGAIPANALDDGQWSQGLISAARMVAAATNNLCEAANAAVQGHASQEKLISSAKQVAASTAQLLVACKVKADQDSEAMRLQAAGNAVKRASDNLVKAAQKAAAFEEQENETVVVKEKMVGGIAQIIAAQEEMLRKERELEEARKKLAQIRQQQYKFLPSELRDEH
Description: as §2

binding result [1]: binds
B1: β1-integrin tail peptide β1InpY (peptide)
peptide: CMNAKWDTGENPI[pY]KSA
modifications: not fully specified; printed as Cys-Met-Asn-Ala-Lys-Trp-Asp-*Thr-Gly-Glu-Asn-Pro-Ile-*Tyr-Lys-Ser-Ala
notes: also called phosphorylated Asn-Pro-Ile-Tyr peptide

fold higher affinity than the non-phosphorylated peptide [2]: 20 fold
B2: PIPKIγ661 peptide pY644 (peptide)
peptide: CDERSWV[pY]SPLHYSAR
notes: Synthetic peptide with an added N-terminal Cys

binding result [1]: binds
B3: β1-integrin tail peptide β1InpT (peptide)
peptide: CMNAKWD[pT]GENPIYKSA
notes: Synthetic peptide; also called phosphorylated Trp-Asp-Thr peptide

fold higher affinity than the non-phosphorylated peptide [2]: 20 fold
B4: PIPKIγ661 peptide pY644/649 (peptide)
peptide: CDERSWV[pY]SPLH[pY]SAR
notes: Synthetic peptide with an added N-terminal Cys; also called dual phosphorylated peptide

binding result (talin): binds
B5: PIPKIγ661 peptide PN (peptide)
peptide: CDERSWVYSPLHYSAR
notes: Synthetic peptide with an added N-terminal Cys; also called non-phosphorylated peptide; unphosphorylated peptide

fold higher affinity than the non-phosphorylated peptide [2]: 20 fold
B6: PIPKIγ661 peptide pY649 (peptide)
peptide: CDERSWVYSPLH[pY]SAR
notes: as for B2
